# Results from paper doi:10.1101/2025.03.05.641625.
# Assays:
# [1] = target: SARS-CoV-2 core RTC with nsp13.1 bound (RTC-nsp13.1) (SARS-CoV-2) (UniProt P0DTD1); assay: magnetic tweezers
# [2] = target: SARS-CoV-2 core replication-transcription complex (nsp12-polymerase, nsp7, nsp8) (SARS-CoV-2) (UniProt P0DTD1); assay: magnetic tweezers
substance,measurement,setting,value
SARS-CoV-2 nsp13-helicase (wild type) (from UniProt P0DTD1 5325-5925) (enzyme),Ka,[1],4.6e+08 M⁻¹
same,Ka,[2],2.3e+08 M⁻¹
